B1: Nucleotide exchange factor SIL1 (Homo sapiens), Q9H173 (parent)
chain: MAPQSLPSSRMAPLGMLLGLLMAACFTFCLSHQNLKEFALTNPEKSSTKETERKETKAEEELDAEVLEVFHPTHEWQALQPGQAVPAGSHVRLNLQTGEREAKLQYEDKFRNNLKGKRLDINTNTYTSQDLKSALAKFKEGAEMESSKEDKARQAEVKRLFRPIEELKKDFDELNVVIETDMQIMVRLINKFNSSSSSLEEKIAALFDLEYYVHQMDNAQDLLSFGGLQVVINGLNSTEPLVKEYAAFVLGAAFSSNPKVQVEAIEGGALQKLLVILATEQPLTAKKKVLFALCSLLRHFPYAQRQFLKLGGLQVLRTLVQEKGTEVLAVRVVTLLYDLVTEKMFAEEEAELTQEMSPEKLQQYRQVHLLPGLWEQGWCEITAHLLALPEHDAREKVLQTLGVLLTTCRDRYRQDPQLGRTLASLQAEYQVLASLELQDGEDEGYFQELLGSVNSLLKELR

Variants of: B1
Conditions: with bip_human HSPA5, P11021
Sequence of bip_human HSPA5, P11021 (P11021 whole entry): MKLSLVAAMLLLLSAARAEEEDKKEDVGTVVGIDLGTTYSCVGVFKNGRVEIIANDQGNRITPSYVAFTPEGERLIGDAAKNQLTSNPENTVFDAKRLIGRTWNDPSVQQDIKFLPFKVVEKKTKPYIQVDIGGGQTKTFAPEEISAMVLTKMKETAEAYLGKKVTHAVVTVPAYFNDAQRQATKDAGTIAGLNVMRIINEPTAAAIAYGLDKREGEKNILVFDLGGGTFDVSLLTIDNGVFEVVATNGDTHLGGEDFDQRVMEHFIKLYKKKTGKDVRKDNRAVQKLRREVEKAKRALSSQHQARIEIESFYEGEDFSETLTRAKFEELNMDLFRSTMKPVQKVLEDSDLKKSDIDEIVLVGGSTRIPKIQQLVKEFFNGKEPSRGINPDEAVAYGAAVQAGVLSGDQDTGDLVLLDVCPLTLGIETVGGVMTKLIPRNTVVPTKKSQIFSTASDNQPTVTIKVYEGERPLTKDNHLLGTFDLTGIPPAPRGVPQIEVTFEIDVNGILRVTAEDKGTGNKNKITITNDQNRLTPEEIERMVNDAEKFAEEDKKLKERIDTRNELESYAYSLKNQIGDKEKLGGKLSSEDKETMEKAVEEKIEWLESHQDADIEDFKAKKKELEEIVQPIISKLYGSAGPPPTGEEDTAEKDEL

Row | effect of a mutation on the interaction | Variant
1 | decreasing interaction strength | L457P

— IntAct's records for PubMed 24473200
